Paper PMC6336276

What was measured:
P69949 = assay: AUC; sedimentation velocity of Str. enolase alone, TME-SO4, 20°C, 37000 rpm; c(s) distribution, percent octamer and monomer; octamer to monomers and other species
[1] = target: Str. enolase DB (Streptococcus pyogenes) (UniProt P69949); assay: as above
[2] = target: Str. enolase DB no hexa-his tag (Streptococcus pyogenes) (UniProt P69949); assay: as above
[3] = target: Str. enolase F137L/E363G (Streptococcus pyogenes) (UniProt P69949); assay: AUC; sedimentation velocity of Str. enolase alone in different buffers (KPi with or without Mg(II), NaCl, imidazole; TME-SO4); octamer to monomers, dimers, tetramers
[4] = target: Str. enolase DB (Streptococcus pyogenes) (UniProt P69949); assay: AUC; sedimentation velocity, 20°C, 37000 rpm, TME-SO4; DPgn alone, Str. enolase alone and the mixture at the same concentrations; shift of the s value of the DPgn peak (Sedfit c(s), DCDT+)
[5] = target: Str. enolase 137/363–4 (Streptococcus pyogenes) (UniProt P69949); assay: AUC; sedimentation velocity, TME-SO4, 20°C; five concentrations of 137/363–4 (1-11.7 μM) and DPgn (0.43-4.2 μM); global fit to an equilibrium constant in Sedphat
[6] = target: Str. enolase 137/363–4 (Streptococcus pyogenes) (UniProt P69949); assay: SPR; localized SPR (Nicoya OpenSPR); hexa-his-tagged Str. enolase 137/363–4 immobilised on a Ni-NTA chip, DPgn injected at successive concentrations in duplicate, ovalbumin as control; Pi, imidazole, NaCl buffer; close to 27 °C; one to two model (TraceDrawer 1.5)
[7] = target: Str. enolase DB (Streptococcus pyogenes) (UniProt P69949); assay: dual polarization interferometry (DPI); Str. enolase adsorbed first on an unmodified silicon oxynitride chip, then DPgn injected; 3 μM each protein, 8 min injections, 25 μL/min/channel, 20°C; proteins in TME-SO4, wash buffer 10 mM phosphate
[8] = target: Str. enolase 137/363–2 K252A K255A (Streptococcus pyogenes) (UniProt P69949); assay: as above

Question: How did the % monomer (from AUC) (P69949) turn out when Str. enolase 137/363–2 K252A K255A was run?
Answer: 70.4%

Question: For Str. enolase DB, which “% monomer (from AUC)” value (P69949) is on record?
Answer: 0.4 (nil?)

Question: Which results are given for “Str. enolase DB (from UniProt P69949 1-435) (enzyme)”?
Answer: % octamer (from AUC) [1]: 88%; stoichiometry N [1]: 8

Question: How did the % monomer (from AUC) (P69949) turn out when Str. enolase DB no hexa-his tag was run?
Answer: 1.3%

Question: With “Str. enolase DB no hexa-his tag (from UniProt P69949 1-435) (enzyme)” as the substance, how does the % octamer (from AUC) [2] read?
Answer: 81.6%

Question: “Str. enolase F137L/E363G (from UniProt P69949 1-435) (enzyme)” was tested. Which stoichiometry N [3] did it give?
Answer: 8

Question: With canine plasminogen (natural protein) as the substance, how does the Ka [4] read?
Answer: < 10000 M⁻¹

Question: What about the Ka [5] of the same substance?
Answer: 340000 M⁻¹

Question: What about the Kd [5] of the same substance?
Answer: 3 µM

Question: What about the KD1 (site 1 of a one to two model) [6] of the same substance?
Answer: 1.34 µM

Question: And the KD2 (site 2 of a one to two model) [6]?
Answer: 2.66 µM

Question: What about the ka1 (site 1 of a one to two model) [6] of the same substance?
Answer: 1300

Question: And the ka2 (site 2 of a one to two model) [6]?
Answer: 9600

Question: What about the kd1 (site 1 of a one to two model) [6] of the same substance?
Answer: 0.0017

Question: What about the kd2 (site 2 of a one to two model) [6] of the same substance?
Answer: 0.026

Question: What about the stoichiometry N (DPgn per enolase monomer) [6] of the same substance?
Answer: 1.6

Question: What about the mass of enolase + DPgn layer [7] of the same substance?
Answer: 2.8 ng/mm^2

Question: What about the mass of enolase + DPgn layer [8] of the same substance?
Answer: 5.3 ng/mm^2
